Data reported in patent publication US20180237511A1 (Sanofi, published 2018).
One block for each binder: values may come before it.

Assays:
[1] = target: T1, murine beta-dystroglycan extracellular domain (mbeta-DG ECD), HPC4 tagged (mouse, UniProt Q62165 652-746); experiment: SPR (Biacore) kinetics; mAb immobilized, mBeta-DG in flow
T1 construct: range 652-746; Made in E. coli as MBP fusion; MBP cleaved off with TEV protease; also called mbeta-DG-HPC4; murine beta-DG; not shown: C-terminal HPC4 tag
T1 sequence (looked up): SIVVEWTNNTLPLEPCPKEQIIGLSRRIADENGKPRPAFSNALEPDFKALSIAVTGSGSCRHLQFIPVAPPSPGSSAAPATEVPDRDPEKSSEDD

[2] = target: T1, murine beta-dystroglycan extracellular …; experiment: SPR (Biacore) kinetics, antibody as ligand on the chip, sample mBDg in flow, fit 1:1 Binding
[3] = target: T2, human beta-dystroglycan extracellular domain (soluble) (human, UniProt Q14118 654-749); experiment: SPR (Biacore) kinetics; mAb immobilized, hBeta-DG in flow
T2 construct: extracellular domain; The expression construct of soluble human beta-DG is not described (only the mouse one); One entry is used for all soluble human beta-DG, also for the crystal structure; also called hBeta-DG; hbeta-DG
T2 sequence (looked up): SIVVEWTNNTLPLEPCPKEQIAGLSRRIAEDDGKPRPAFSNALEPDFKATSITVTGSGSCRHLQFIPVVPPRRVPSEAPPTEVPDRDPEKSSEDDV

[4] = target: T3, Fabrazyme (agalsidase beta, Genzyme) (UniProt P06280 32-429); experiment: dot blot: protein dotted on nitrocellulose (250 to .016 ng), probed with AS19
T3 construct: Negative control protein on the dot blots
T3 sequence (looked up): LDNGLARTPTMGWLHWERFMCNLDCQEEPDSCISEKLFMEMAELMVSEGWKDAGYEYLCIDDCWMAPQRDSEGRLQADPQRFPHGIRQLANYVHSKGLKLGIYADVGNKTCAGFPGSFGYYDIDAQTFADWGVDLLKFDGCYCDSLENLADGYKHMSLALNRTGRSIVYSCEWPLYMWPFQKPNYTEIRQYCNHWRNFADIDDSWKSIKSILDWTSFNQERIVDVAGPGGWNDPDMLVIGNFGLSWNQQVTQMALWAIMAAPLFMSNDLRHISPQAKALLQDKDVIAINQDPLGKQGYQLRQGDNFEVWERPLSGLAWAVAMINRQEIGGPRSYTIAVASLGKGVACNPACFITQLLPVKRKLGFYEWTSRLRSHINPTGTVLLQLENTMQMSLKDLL

[5] = target: T2, human beta-dystroglycan extracellular …; experiment: SPR, antibody on Protein G chip, beta-DG in flow, 1:1 model (table title says laminin-2; paragraph 445 says human beta-DG)
Method: Data was evaluated with a 1:1 binding model using the BIAevaluation software.
SPR was used as described above to analyze the kinetics of triAb binding to laminin-2 (Table N) or beta-DG (Table O).

[6] = target: T2, human beta-dystroglycan extracellular …; experiment: dual binding sandwich ELISA on coated human beta-DG, read out through LG4/5-mFc (5 ug/mL)
Method: A dual binding sandwich ELISA was performed by coating Thermo Nunc Immobilized SA 96 well plates with either 2 ug/mL of biotinylated N′Avi-HPC4-human LG4/5 or biotinylated human-beta DG-HPC4-Avi-C′. After overnight incubation at 4° C., the plates were blocked with PBS+1% BSA+0.1% Tween for 1 hour at room temperature. After washing (BioTek ELx405 Select CW) with PBS, the trivalent or parental antibodies were added to the plate started at 8 ug/mL and a 2-fold dilution was performed across the plate, antibody was incubated for 1 hour at room temperature. After washing, the second antigen of beta-DG-mFc (FIG. 1A) or LG4/5-mFc was added at 5 ug/mL. Following the second antigen, a secondary antibody of donkey anti-mouse (Jackson ImmunoResearch) at a 1:2,000 dilution was added for 30 minutes. ABTS was resuspended in ABTS buffer (Roche) and added to the wells for detection. Resulting signal was read with the Perkin Elmer EnVision Multimode Plate Reader at 405 nm.
To show binding of the triAbs to both antigens, a dual binding sandwich ELISA was performed as described above using 2 ug/mL of biotinylated N′Avi-HPC4-human LG4/5 (FIG. 14A) or biotinylated human-beta DG-HPC4-Avi-C′ (FIG. 14B).

Kd [1]: 3.38 nM
koff [2]: 0.000667 s⁻¹
kon [2]: 110000 M⁻¹ s⁻¹
Kd [3]: 2.06 nM
binding result [4]: no binding (tested: 250 ng)
B1: anti-beta-DG antibody derived from hybridoma clone AS19 (antibody, V domains shown)
VH: QVQLQQSGPELVKPGASVKMSCKASGFTFTDSVISWVKQRTGQGLEWIGEIYPGSGSIYYNEKFKGKATLTADKSSNTAYMQLRSLTSEDSAVYFCAMRRSYWGQGTLVTVSA
VL: DVLMTQTPLSLPVSLGDQASISCRSSQSIVHSNGNTYLEWYLQKPGQSPKLLIYKVSNRFSGVPDRFSGSGSGTDFTLKISRVEAEDLGVYYCFQGSHVPLTFGAGTKLELK
notes: Hybridoma monoclonal antibody (detected with anti-mouse IgG)

Kd [5]: 2.08 nM
koff [5]: 0.00326 s⁻¹
kon [5]: 1.57e+06 M⁻¹ s⁻¹
EC50 (read off the curve) [6]: ~0.1 µg/mL
B2: triAb 3407 (bispecific antibody)
light 1: EIVLTQSPDFLSVTPKEKVTLTCRASQSISNNLHWYQQKSDQSPKLLIKYASQSISGIPSRFSGSGSGTDFTLTINSVEAEDAATYFCQQSKSWPRTFGGGTKLEIKDKTHTEIVLTQSPDFLSVTPKEKVTLTCRASQSISNNLHWYQQKSDQSPKLLIKYASQSISGIPSRFSGSGSGTDFTLTINSVEAEDAATYFCQQSKSWPRTFGGGTKLEIKDKTHTRTVAAPSVFIFPPSDEQLKSGTASVVCLLNNFYPREAKVQWKVDNALQSGNSQESVTEQDSKDSTYSLSSTLTLSKADYEKHKVYACEVTHQGLSSPVTKSFNRGEC
heavy 1: EVQLVESGGGLVKPGGSLRLSCAASGFTFSSYTMSWVRQAPGKGLEWVASISSSGSNTYYPDSVKGRFTISRDNAKNNLYLQMNSLRAEDTALYYCARFDYGSSLDSWGQGTLLTVSSDKTHTEVQLVESGGGLVKPGGSLRLSCAASGFTFSSYTMSWVRQAPGKGLEWVASISSSGSNTYYPDSVKGRFTISRDNAKNNLYLQMNSLRAEDTALYYCARFDYGSSLDSWGQGTLLTVSSDKTHTASTKGPSVFPLAPSSKSTSGGTAALGCLVKDYFPEPVTVSWNSGALTSGVHTFPAVLQSSGLYSLSSVVTVPSSSLGTQTYICNVNHKPSNTKVDKKVEPKSCDKTHTCPPCPAPELLGGPSVFLFPPKPKDTLYITREPEVTCVVVDVSHEDPEVKFNWYVDGVEVHNAKTKPREEQYNNASRVVSVLTVLHQDWLNGKEYKCKVSNKALPAPIEKTISKAKGQPREPQVYTLPPCRDELTKNQVSLWCLVKGFYPSDIAVEWESNGQPENNYKTTPPVLDSDGSFFLYSKLTVDKSRWQQGNVFSCSVMHEALHNHYTQKSLSLSPG
heavy 2: QVQLVQSGAEVVKPGSSVKVSCEASGFTFTDSVITWVRQRPGQGLEWIGEIYPGSGNFYYNEKFQGRVTITADKSTSTAYMELSSLRSEDTAVYFCAMRRSSWGQGTLVTVSSASTKGPSVFPLAPSSKSTSGGTAALGCLVKDYFPEPVTVSWNSGALTSGVHTFPAVLQSSGLYSLSSVVTVPSSSLGTQTYICNVNHKPSNTKVDKKVEPKSCDKTHTCPPCPAPELLGGPSVFLFPPKPKDTLYITREPEVTCVVVDVSHEDPEVKFNWYVDGVEVHNAKTKPREEQYNNASRVVSVLTVLHQDWLNGKEYKCKVSNKALPAPIEKTISKAKGQPREPQVCTLPPSRDELTKNQVSLSCAVKGFYPSDIAVEWESNGQPENNYKTTPPVLDSDGSFFLVSKLTVDKSRWQQGNVFSCSVMHEALHNRFTQKSLSLSPG
light 2: DVVMTQTPLSLSVTPGQPASISCKSSQTIVHSNSKTYLEWYLQKPGQSPQLLIYKVSSRFSGVPDRFSGSGSGTDFTLKISRVEAEDVGVYYCFQGSHVPLTFGQGTKLEIKRTVAAPSVFIFPPSDEQLKSGTASVVCLLNNFYPREAKVQWKVDNALQSGNSQESVTEQDSKDSTYSLSSTLTLSKADYEKHKVYACEVTHQGLSSPVTKSFNRGEC
notes: knob-in-hole, NNAS, YTE and RF variants
